Experimental data reported in US10913781B2, “Pepducin design and use” (Tufts Medical Center, Inc., priority 2011, dated 2021).
Read-outs that look alike come from different tables or passages of the source. Peptide text beside a SMILES is read from it. * marks the point of attachment. Palmitoyl = CCCCCCCCCCCCCCCC(=O)*

What was measured:
[1] = test system: A549, HOP62, and HOP92 lung carcinoma cell lines; experiment: Cytotoxicity/cell viability of lung carcinoma cells (MIT assay); format: cell-based, human; conditions: 3-day period
A549 xenografts = format: in vivo, mouse
Protocol: (§1) FIG. 13 illustrates that monotherapy with PAR1-i3 pepducins inhibits tumor progression of A549 xenografts. (A) and (B): A549 mice treated with vehicle, P1pal-7, P1pal-i1-11, P1pal-10S, X1/2-i1, X1/2-i3, or Avastin. Each time point represents the mean±SE. (C): Final tumor volume at the completion of the experiment was calculated as a percentage of untreated vehicle control. (D): Serum-starved A549 adenocarcinoma cells were pretreated with P1pal-7, P1pal-10S, P1pal-i1-11, vehicle, or PD98059 and stimulated with thrombin. VEGF production was assessed by enzyme-linked immunosorbent assay. Data are expressed as mean±SD (*P<0.05, **P<0.01).
PAR1 expression level is correlated with reduced survival of patients with NSCLC. To define the relative importance of PAR1 in lung tumor progression, in vivo mouse models were used. […] An A549 lung adenocarcinoma xenograft model in nude mice was used to evaluate monotherapy with P1pal-7, P1pal-10S, P1pal-i1-11, or the VEGF antagonist Avastin.

VEGF-A production = experiment: Thrombin-dependent VEGF-A production in A549 cells (ELISA); format: cell-based, human; conditions: A549, 18 hours thrombin treatment
Protocol: as §1
Because the i3-based P1pal-7 pepducin had similar efficacy as Avastin in suppressing lung tumor growth of A549 xenografts, VEGF-A production was measured in the A549 tumor cells after 18 hours thrombin treatment. […] Unlike in ovarian cancer, no increase was found in PAR1-mediated IL-8 production in A549 cells, consistent with the observed lack of efficacy of CXCR1/2 pepducins in the A549 xenograft models. These xenograft data provide support for the role of a novel PAR1-ERK1/2-VEGF paracrine pathway that is an effective therapeutic target in the A549 adenocarcinoma lung cancer model.

[2] = Pharmacokinetics of PAR1 pepducins in CF-1 mice, plasma LC/MS/MS; format: in vivo, mouse; conditions: 10 mg/kg s.c.
Protocol: FIG. 14 illustrates pharmacokinetics of PAR1 pepducins. (A): CF-1 mice were injected subcutaneously with P1pal-7 (3 mg/kg, open circles), P1pal-7 (10 mg/kg, closed circles), P1pal-10S (10 mg/kg, gray circles), or P1pal-i1-11 (10 mg/kg, open squares) in 20% dimethyl sulfoxide and blood was collected at indicated time points (n=3). Pepducin levels in plasma were quantified with LC/MS/MS. (B): Daily (D1 to D6) plasma levels of P1pal-7 after subcutaneous injection of 10 mg/kg P1pal-7 were measured at 1 hour (open circles) and 24 hours (open squares).
Pharmacokinetics of plasma levels of P1pal-7, P1pal-10S, and P1pal-i1-11 at 30 minutes, and at 1, 2, 4, 6, 8, and 16 hours was measured by LC/MS/MS to determine steady-state pepducin drug levels and the rate of elimination from mice. Subcutaneous injections of P1pal-7 (3 mg/kg or 10 mg/kg) into wild-type CF-1 mice (25 to 30 g) was followed by blood collection at various time points from the vena cava. […] Residual P1pal-7 levels were 10 nmol/L at the 16-hour time point. After the 4-hour plateau, the elimination rate was linear from 4 to 16 hours. The peak plasma level of 3 mg/kg P1pal-7 reached 0.6 μmol/L at 2 hours and elimination was linear between 2 hours and 16 hours. P1pal-10S (10 mg/kg) gave similar peak plasma level of 1.0 μmol/L as P1pal-7 (10 mg/kg) at 1 hour.
Lastly, the peak plasma level of P1pal-7 (10 mg/kg) was measured before and 1 hour after once-daily subcutaneous injection over 6 days to determine whether the peak plasma levels were consistent on daily administration.

PAR1 = target: T1, PAR1 (Homo sapiens, UniProt P25116); experiment: ERK1/2 phosphorylation in A549 cells (thrombin or […]), Western blot; format: cell-based; parameters: endogenous in cells; host or cells: A549, HOP62, H1299, H522, H226, HOP92 lung carcinoma lines; conditions: A549 cells; pepducin 0.1-3 μM
T1 sequence (P25116 22-425): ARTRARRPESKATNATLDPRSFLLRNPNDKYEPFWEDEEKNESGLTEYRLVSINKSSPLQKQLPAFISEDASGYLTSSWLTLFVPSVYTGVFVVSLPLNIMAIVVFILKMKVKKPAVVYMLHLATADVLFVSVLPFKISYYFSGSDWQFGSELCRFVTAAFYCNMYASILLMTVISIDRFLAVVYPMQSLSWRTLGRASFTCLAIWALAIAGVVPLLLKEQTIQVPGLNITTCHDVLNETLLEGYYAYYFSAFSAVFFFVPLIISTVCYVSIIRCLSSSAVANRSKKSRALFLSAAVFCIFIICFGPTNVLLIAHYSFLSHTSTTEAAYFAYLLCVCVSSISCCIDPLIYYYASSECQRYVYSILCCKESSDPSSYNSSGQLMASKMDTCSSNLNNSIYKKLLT
Protocol: FIG. 9 illustrates that differential inhibition of PAR1-ERK activation by i3- and i1-derived PAR1 pepducins. (A-C): Western blots of lysates from A549 cells untreated, or treated with thrombin, SLIGKV (SEQ ID NO:29), or AYPGKF (SEQ ID NO:5). Indicated samples were pretreated with various concentrations (0.1 to 3 μmol/L) of P1pal-7, P1pal-10S, or P1pal-i1-11 before stimulation and immunoblotted with anti-phospho-ERK. (D-F): Quantification of the Western blots in (A-C) were conducted by densitometry and results are expressed relative to maximum (fold max) phosphorylation of pERK.
(B): A549 cells stimulated with 10 μM […] over 2 h. A549 cells pretreated with 0.1 μM P1pal-7 and stimulated with 10 μM […] (SEQ ID NO:30) for 5 min. Total ERK was used as a loading control.
Last, there has been a great deal of interest in understanding the mechanism of PAR1-mediated activation of MAP kinase cascade and PAR1-dependent cellular growth and differentiation, proliferation and gene transcription. […] The effects of i1 versus i3 PAR1 pepducins on ERK1/2 activation were examined in the A549 lung adenocarcinoma cell line. […] Inhibition experiments with a range of pepducin concentrations (0.1-3 μM) were conducted. […] The […] (SEQ ID NO:30) peptide gave a rapid and transient ERK1/2 phosphorylation signal that peaked at 5-15 min after stimulation. […] To determine the specificity of the PAR1 pepducin inhibitors, their effects on the closely related PAR2 and PAR4 receptors were also tested.

PAR2 [3] = target: T2, PAR2 (Homo sapiens, UniProt P55085); experiment: Agonist | (%)^†; parameters: SW620 colon adenocarcinoma cells that endogenously express PAR2; endogenous in cells; host or cells: SW620 (in A7 the SW620 cells were additionally stably transfected with PAR1); conditions: 4 µM
Protocol: (§2) (A) Agonist and antagonist activity of third intracellular (i3) loop PAR2 pepducins (structure shown on top) using calcium flux assays with SW620 colon adenocarcinoma cells that endogenously express PAR2. Each column of three calcium flux traces corresponds to the i3 pepducin sequence shown above. The top row is the agonist activity of 3-4 μM pepducin and the middle row is the agonist activity of 14-15 μM pepducin. […] Final concentration of DMSO vehicle was 0.2%. […] (C) Agonist activity for each pepducin from (A) is reported as initial velocity of calcium flux at 4 μM pepducin (†), or at 14-15 μM pepducin (‡).

PAR2 [4] = target: T2, PAR2; experiment: Antagonist | (% inhibition); parameters: SW620 colon adenocarcinoma cells that endogenously express PAR2; endogenous in cells; host or cells: SW620 (in A7 the SW620 cells were additionally stably transfected with PAR1); conditions: 6 µM
Protocol: as §2

PAR2 [5] = target: T2, PAR2; experiment: Agonist | (%)^‡; parameters: SW620 colon adenocarcinoma cells that endogenously express PAR2; endogenous in cells; host or cells: SW620 (in A7 the SW620 cells were additionally stably transfected with PAR1)
PAR2 [6] = target: T2, PAR2; experiment: Calcium flux screen for PAR2 pepducin agonist and antagonist activity in SW620 cells; format: cell-based; parameters: SW620 colon adenocarcinoma cells that endogenously express PAR2; endogenous in cells; host or cells: SW620 (in A7 the SW620 cells were additionally stably transfected with PAR1); conditions: for Antagonist activity (inhibition of SLIGRL calcium flux, area under the curve): 6 μM pepducin, 1 min pretreatment, against 100 μM SLIGRL; for Agonist activity (calcium flux): 3-4 μM and 14-15 μM pepducin
Protocol: as §2

## CCCCCCCCCCCCCCCC(=O)N[C@@H](CC(N)=O)C(=O)N[C@@H](CCCNC(=N)N)C(=O)N[C@@H](CO)C(=O)N[C@@H](CCCCN)C(=O)N[C@@H](CCCCN)C(=O)N[C@@H](CO)C(=O)N[C@@H](CO)C(=O)N[C@@H](C)C(=O)N[C@@H](CC(C)C)C(=O)N[C@@H](Cc1ccccc1)C(N)=O [P1pal-10S] (Palmitoyl-NRSKKSSALF-NH2)
[1]
  Sensitivity of A549 cells (cytotoxicity): most sensitive
A549 xenografts; mouse, in vivo
  Inhibition of tumor progression/growth (final tumor volume vs vehicle): 40%
VEGF-A production
  Effect on thrombin-dependent VEGF-A production: partially blocked
[2]
  Clearance / plasma half-life in words: rapid clearance after 1 hour
[2]; CF-1, mouse, plasma, sc, read-out: Time of peak plasma level
  Tmax: 1 h
[2]; mouse, plasma, sc, CF-1 mice, read-out: Peak plasma level
  Cmax: 1000 nM
PAR1
  Effect on thrombin-induced ERK1/2 phosphorylation: complete inhibition

## COc1cccc(-c2cc(=O)c3ccccc3o2)c1N [PD98059, reference compound]
VEGF-A production
  Effect on thrombin-dependent VEGF-A production: could suppress

## Avastin: VEGF antibody; VEGF antagonist [reference compound]
A549 xenografts; monotherapy, nude mice
  Inhibition of tumor progression/growth (final tumor volume vs vehicle): 75%

## P2pal-14GF: N-terminally truncated palmitoylated PAR2 pepducin, M274 to G and K287 to F; SEQ ID NO:23 (Palmitoyl-GDENSEKKRKRAIF-NH2) [listing 1 of 2 here]
PAR2 [3]
  Agonist | (%)^†: 3%
PAR2 [4]
  Antagonist | (% inhibition): 0 % inhibition
PAR2 [5]
  Agonist | (%)^‡: 8%

## P2pal-14GF: N-terminally truncated palmitoylated PAR2 pepducin, M274 to G and K287 to F; SEQ ID NO:23 (Palmitoyl-GDENSEKKRKRAIF-NH2) [listing 2 of 2 here]
PAR2 [6]
  Antagonist activity (inhibition of SLIGRL calcium flux, area under the curve): no significant agonist or any detectable antagonist activity
  Agonist activity (calcium flux): no significant agonist

## P2pal-18F: palmitoylated PAR2 pepducin, K287 to F, first three residues (R267, M268, L269) deleted; SEQ ID NO:19 (Palmitoyl-RSSAMDENSEKKRKRAIF-NH2) [listing 1 of 2 here]
PAR2 [3]
  Agonist | (%)^†: 5%
PAR2 [4]
  Antagonist | (% inhibition): 0 % inhibition
PAR2 [5]
  Agonist | (%)^‡: 35%

## P2pal-18F: palmitoylated PAR2 pepducin, K287 to F, first three residues (R267, M268, L269) deleted; SEQ ID NO:19 (Palmitoyl-RSSAMDENSEKKRKRAIF-NH2) [listing 2 of 2 here]
PAR2 [6]
  Antagonist activity (inhibition of SLIGRL calcium flux, area under the curve): devoid of antagonist activity
  Agonist activity (calcium flux): slight decrease in agonist activity at lower concentration

## P2pal-18Q: palmitoylated PAR2 pepducin, R284 replaced by glutamine; SEQ ID NO:22 (Palmitoyl-RSSAMDENSEKKRKQAIK-NH2) [listing 1 of 2 here]
PAR2 [5]
  Agonist | (%)^‡: 16%

## P2pal-18Q: palmitoylated PAR2 pepducin, R284 replaced by glutamine; SEQ ID NO:22 (Palmitoyl-RSSAMDENSEKKRKQAIK-NH2) [listing 2 of 2 here]
PAR2 [6]
  Agonist activity (calcium flux): nearly no agonist activity

## P2pal-18SF: palmitoylated PAR2 pepducin, R284 to S and K287 to F; SEQ ID NO:21 (Palmitoyl-RSSAMDENSEKKRKSAIF-NH2) [listing 1 of 2 here]
PAR2 [3]
  Agonist | (%)^†: 8%
PAR2 [4]
  Antagonist | (% inhibition): 57 % inhibition
PAR2 [5]
  Agonist | (%)^‡: 30%

## P2pal-18SF: palmitoylated PAR2 pepducin, R284 to S and K287 to F; SEQ ID NO:21 (Palmitoyl-RSSAMDENSEKKRKSAIF-NH2) [listing 2 of 2 here]
PAR2 [6]
  Agonist activity (calcium flux): restored agonist activity
